tested on: Escherichia coli TOP10; experiment: shrunken log2 fold change of peptide-encoding DNA abundance (4.5 h post-induction vs induction); higher = less antimicrobial activity (less host growth inhibition); conditions: time post-induction: 4.5 h; library: site-saturation at positions 5, 18, 19, 20
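Note: peptides expressed intracellularly from a pBAD plasmid library in pooled LB shake-flask culture, induced with 0.3% L-arabinose, DNA abundance read by NGS, three biological replicates, DESeq2 with apeglm shrinkage.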

| Sequence | shrunken log2 fold change |
| --- | --- |
| RRIRARPPRLPRPRPRPLYHPRP | 0.149 |
| RRIRNRPPRLPRPRPRPKHPPRP | 0.111 |
| RRIRNRPPRLPRPRPRPTDAPRP | -0.15 |
| RRIRQRPPRLPRPRPRPKDWPRP | 0.377 |
| RRIRFRPPRLPRPRPRPAAKPRP | -0.118 |
| RRIRWRPPRLPRPRPRPAYWPRP | 0.473 |
| RRIRQRPPRLPRPRPRPYQNPRP | -0.816 |
| RRIRGRPPRLPRPRPRPIHQPRP | -0.0704 |
| RRIRGRPPRLPRPRPRPGYQPRP | -0.0619 |
| RRIRQRPPRLPRPRPRPVFVPRP | -0.0727 |
| RRIRYRPPRLPRPRPRPEKLPRP | -0.034 |
| RRIRLRPPRLPRPRPRPFCRPRP | 0.0702 |
| RRIRRRPPRLPRPRPRPFLWPRP | 0.173 |
| RRIRQRPPRLPRPRPRPREEPRP | -0.00407 |
| RRIRLRPPRLPRPRPRPPIVPRP | -0.531 |
| RRIRARPPRLPRPRPRPFRYPRP | -0.283 |
| RRIRGRPPRLPRPRPRPGMNPRP | 0.105 |
| RRIRLRPPRLPRPRPRPMMIPRP | -0.203 |
| RRIRHRPPRLPRPRPRPYYPPRP | -0.228 |
| RRIRYRPPRLPRPRPRPLWTPRP | -0.563 |
| RRIRGRPPRLPRPRPRPQNKPRP | 0.0435 |
| RRIRKRPPRLPRPRPRPYALPRP | -0.119 |
| RRIRCRPPRLPRPRPRPSRFPRP | -0.0991 |
| RRIRNRPPRLPRPRPRPTCWPRP | 0.696 |
| RRIRLRPPRLPRPRPRPFQFPRP | -0.255 |

| Sequence | shrunken log2 fold change |
| --- | --- |
| RRIRPRPPRLPRPRPRPAEQPRP | 0.411 |
| RRIRARPPRLPRPRPRPPDSPRP | 0.212 |
| RRIRQRPPRLPRPRPRPVVNPRP | -0.126 |
| RRIRYRPPRLPRPRPRPNATPRP | -0.222 |
| RRIRCRPPRLPRPRPRPRHYPRP | -0.393 |
| RRIRIRPPRLPRPRPRPWCGPRP | -0.454 |
| RRIRPRPPRLPRPRPRPWTMPRP | 0.0177 |
| RRIRARPPRLPRPRPRPEKMPRP | 0.706 |
| RRIRWRPPRLPRPRPRPLHKPRP | 0.0164 |
| RRIRCRPPRLPRPRPRPQRIPRP | 0.0509 |
| RRIRHRPPRLPRPRPRPVETPRP | 0.0401 |
| RRIRTRPPRLPRPRPRPMDAPRP | 0.0575 |
| RRIRSRPPRLPRPRPRPWQCPRP | -0.19 |
| RRIRDRPPRLPRPRPRPGRHPRP | 0.186 |
| RRIRFRPPRLPRPRPRPREPPRP | 0.208 |
| RRIRERPPRLPRPRPRPLSMPRP | -0.242 |
| RRIRIRPPRLPRPRPRPRPSPRP | 0.322 |
| RRIRVRPPRLPRPRPRPIGPPRP | -0.0936 |
| RRIRKRPPRLPRPRPRPYHCPRP | -0.0129 |
| RRIRPRPPRLPRPRPRPPIHPRP | -0.039 |
| RRIRPRPPRLPRPRPRPRIFPRP | -0.0669 |
| RRIRCRPPRLPRPRPRPEFHPRP | -0.664 |
| RRIRLRPPRLPRPRPRPYYEPRP | -0.493 |
| RRIRGRPPRLPRPRPRPIAYPRP | 0.117 |
| RRIRFRPPRLPRPRPRPSMYPRP | -0.432 |

| Sequence | shrunken log2 fold change |
| --- | --- |
| RRIRCRPPRLPRPRPRPSSSPRP | -0.366 |
| RRIRCRPPRLPRPRPRPLPFPRP | -0.71 |
| RRIRSRPPRLPRPRPRPHRCPRP | -0.209 |
| RRIRWRPPRLPRPRPRPSSVPRP | 0.278 |
| RRIRFRPPRLPRPRPRPKPSPRP | 0.462 |
| RRIRGRPPRLPRPRPRPWIWPRP | 0.236 |
| RRIRFRPPRLPRPRPRPTDFPRP | -0.302 |
| RRIRWRPPRLPRPRPRPPPWPRP | 0.616 |
| RRIRDRPPRLPRPRPRPHSMPRP | -0.293 |
| RRIRVRPPRLPRPRPRPAKLPRP | 0.139 |
| RRIRRRPPRLPRPRPRPWYHPRP | -0.0689 |
| RRIRKRPPRLPRPRPRPLKQPRP | 0.146 |
| RRIRFRPPRLPRPRPRPYRHPRP | -1.08 |
| RRIRERPPRLPRPRPRPGMAPRP | 0.188 |
| RRIRGRPPRLPRPRPRPDNTPRP | 0.204 |
| RRIRYRPPRLPRPRPRPLICPRP | -0.255 |
| RRIRGRPPRLPRPRPRPKCQPRP | 0.581 |
| RRIRGRPPRLPRPRPRPESWPRP | 1.7 |
| RRIRTRPPRLPRPRPRPMATPRP | 0.0309 |
| RRIRNRPPRLPRPRPRPCTCPRP | -0.0075 |
| RRIRQRPPRLPRPRPRPRQDPRP | 0.243 |
| RRIRCRPPRLPRPRPRPHYDPRP | -0.687 |
| RRIRWRPPRLPRPRPRPNDPPRP | -0.137 |
| RRIRQRPPRLPRPRPRPHPRPRP | 0.575 |
| RRIRMRPPRLPRPRPRPGNIPRP | -0.115 |

| Sequence | shrunken log2 fold change |
| --- | --- |
| RRIRARPPRLPRPRPRPKLIPRP | 0.128 |
| RRIRGRPPRLPRPRPRPGGCPRP | 1.19 |
| RRIRARPPRLPRPRPRPPMWPRP | 0.805 |
| RRIRGRPPRLPRPRPRPKIAPRP | 0.386 |
| RRIRTRPPRLPRPRPRPMSFPRP | -0.0183 |
| RRIRPRPPRLPRPRPRPAACPRP | 0.103 |
| RRIRRRPPRLPRPRPRPQNCPRP | -0.275 |
| RRIRARPPRLPRPRPRPHIVPRP | -0.000968 |
| RRIRGRPPRLPRPRPRPMWAPRP | 0.925 |
| RRIRIRPPRLPRPRPRPILPPRP | 0.0798 |
| RRIRDRPPRLPRPRPRPSGRPRP | 0.124 |
| RRIRHRPPRLPRPRPRPHNAPRP | -0.809 |
| RRIRKRPPRLPRPRPRPHNAPRP | 0.0979 |
| RRIRDRPPRLPRPRPRPNPTPRP | 0.135 |
| RRIRKRPPRLPRPRPRPYECPRP | -0.341 |
| RRIRCRPPRLPRPRPRPALRPRP | 0.457 |
| RRIRDRPPRLPRPRPRPLSLPRP | 0.0554 |
| RRIRLRPPRLPRPRPRPANSPRP | -0.202 |
| RRIRYRPPRLPRPRPRPWHQPRP | -0.883 |
| RRIRMRPPRLPRPRPRPLLAPRP | 2.1 |
| RRIRPRPPRLPRPRPRPSTYPRP | -0.415 |
| RRIRKRPPRLPRPRPRPWPDPRP | 0.238 |
| RRIRQRPPRLPRPRPRPGKDPRP | -0.115 |
| RRIRHRPPRLPRPRPRPGFPPRP | 0.336 |
| RRIRCRPPRLPRPRPRPVFQPRP | -0.0498 |

| Sequence | shrunken log2 fold change |
| --- | --- |
| RRIRMRPPRLPRPRPRPASTPRP | 0.323 |
| RRIRDRPPRLPRPRPRPGPSPRP | -0.0742 |
| RRIRCRPPRLPRPRPRPLQCPRP | -0.279 |
| RRIRARPPRLPRPRPRPPNPPRP | 0.662 |
| RRIRGRPPRLPRPRPRPIERPRP | -0.00587 |
| RRIRKRPPRLPRPRPRPHKCPRP | 2.12 |
| RRIRDRPPRLPRPRPRPMDDPRP | -0.000946 |
| RRIRYRPPRLPRPRPRPFEMPRP | -0.738 |
| RRIRYRPPRLPRPRPRPYEPPRP | -0.248 |
| RRIRARPPRLPRPRPRPFYHPRP | -0.462 |
| RRIRWRPPRLPRPRPRPDTSPRP | 0.0558 |
| RRIRCRPPRLPRPRPRPLTRPRP | 0.258 |
| RRIRVRPPRLPRPRPRPWCVPRP | -0.504 |
| RRIRHRPPRLPRPRPRPNYTPRP | -0.529 |
| RRIRARPPRLPRPRPRPEHPPRP | 0.652 |
| RRIRGRPPRLPRPRPRPIPGPRP | 0.107 |
| RRIRDRPPRLPRPRPRPKYTPRP | -0.214 |
| RRIRWRPPRLPRPRPRPRDYPRP | -0.127 |
| RRIRKRPPRLPRPRPRPMNEPRP | 0.22 |
| RRIRSRPPRLPRPRPRPTMGPRP | -0.238 |
| RRIRCRPPRLPRPRPRPWGIPRP | -0.59 |
| RRIRMRPPRLPRPRPRPSAEPRP | 2.7 |
| RRIRNRPPRLPRPRPRPIHEPRP | -0.00804 |
| RRIRSRPPRLPRPRPRPTCLPRP | -0.117 |
| RRIRHRPPRLPRPRPRPLRPPRP | 0.639 |

| Sequence | shrunken log2 fold change |
| --- | --- |
| RRIRGRPPRLPRPRPRPRCPPRP | 1.4 |
| RRIRHRPPRLPRPRPRPFNKPRP | -0.01 |
| RRIRIRPPRLPRPRPRPVKVPRP | -0.00567 |
| RRIRSRPPRLPRPRPRPHHVPRP | -0.243 |
| RRIRGRPPRLPRPRPRPNQNPRP | 0.4 |
| RRIRYRPPRLPRPRPRPYNKPRP | -0.734 |
| RRIRDRPPRLPRPRPRPWYRPRP | -0.0745 |
| RRIRRRPPRLPRPRPRPHTTPRP | -0.303 |
| RRIRNRPPRLPRPRPRPYTVPRP | 0.0303 |
| RRIRIRPPRLPRPRPRPFTYPRP | -0.00992 |
| RRIRRRPPRLPRPRPRPIMYPRP | -0.186 |
| RRIRDRPPRLPRPRPRPCCCPRP | 0.714 |
| RRIRERPPRLPRPRPRPEAQPRP | 0.227 |
| RRIRVRPPRLPRPRPRPPLPPRP | 0.325 |
| RRIRPRPPRLPRPRPRPWTGPRP | -0.125 |
| RRIRGRPPRLPRPRPRPPTNPRP | 0.866 |
| RRIRGRPPRLPRPRPRPWQYPRP | -0.0381 |
| RRIRWRPPRLPRPRPRPTCGPRP | 0.73 |
| RRIRERPPRLPRPRPRPMPIPRP | -0.18 |
| RRIRYRPPRLPRPRPRPRANPRP | -0.109 |
| RRIRDRPPRLPRPRPRPYSNPRP | -0.045 |
| RRIRIRPPRLPRPRPRPERCPRP | 0.296 |
| RRIRYRPPRLPRPRPRPLRFPRP | -0.28 |
| RRIRTRPPRLPRPRPRPETQPRP | 0.205 |
| RRIRYRPPRLPRPRPRPTHEPRP | 0.0198 |
